In article doi:10.1101/2023.12.08.570889 (bioRxiv, 2023):
Blank lines part the entries; values can stand above or below the binder they belong to.

How the values were obtained:
Experiment in all cases: SPR
IL17A = IL17A (Homo sapiens (assumed), UniProt Q16552)
CD40 = CD40 (Homo sapiens (assumed), UniProt P25942)
IL36R = IL36R (Homo sapiens (assumed), UniProt Q9HB29)
Chain of IL36R (Q9HB29 20-335): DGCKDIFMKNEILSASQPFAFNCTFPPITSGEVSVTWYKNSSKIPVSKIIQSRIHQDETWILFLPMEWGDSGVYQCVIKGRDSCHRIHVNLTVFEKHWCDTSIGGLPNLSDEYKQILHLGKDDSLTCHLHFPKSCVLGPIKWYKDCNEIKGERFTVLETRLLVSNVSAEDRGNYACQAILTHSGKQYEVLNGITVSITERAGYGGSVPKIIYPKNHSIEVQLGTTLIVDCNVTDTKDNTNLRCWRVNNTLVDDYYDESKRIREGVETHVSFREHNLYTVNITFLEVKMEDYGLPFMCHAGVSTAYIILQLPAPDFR

Chain of CD40 (P25942 21-193): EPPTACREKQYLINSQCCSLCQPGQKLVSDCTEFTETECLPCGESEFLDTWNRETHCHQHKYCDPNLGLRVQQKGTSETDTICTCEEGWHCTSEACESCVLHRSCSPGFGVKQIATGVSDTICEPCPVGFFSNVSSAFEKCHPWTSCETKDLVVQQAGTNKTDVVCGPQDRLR
Chain of IL17A (Q16552 24-155): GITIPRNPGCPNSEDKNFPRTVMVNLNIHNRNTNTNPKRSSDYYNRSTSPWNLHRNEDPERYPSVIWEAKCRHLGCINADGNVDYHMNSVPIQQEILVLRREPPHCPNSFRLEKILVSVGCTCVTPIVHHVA

binding result (IL17A): binds
B1: Afasevikumab (Fab, V domains shown)
VH: EVQLVESGGGLVQPGRSLRLSCAASGFTFDDYAMHWVRQAPGKGLEWVSGINWSSGGIGYADSVKGRFTISRDNAKNSLYLQMNSLRAEDTALYYCARDIGGFGEFYWNFGLWGRGTLVTVSS
VL: not shown

binding result (CD40): binds
B2: Ravagalimab (Fab, V domains shown)
VH: EVQLVESGGGLVKPGGSLRLSCAASGFTFSDYGMNWVRQAPGKGLEWIAYISSGRGNIYYADTVKGRFTISRDNAKNSLYLQMNSLRAEDTAVYYCARSWGYFDVWGQGTTVTVSS
VL: DIVMTQSPDSLAVSLGERATINCKSSQSLLNRGNQKNYLTWFQQKPGQPPKLLIYWASTRESGVPDRFSGSGSGTDFTLTISSLQAEDVAVYYCQNDYTYPLTFGQGTKLEIK

binding result (IL36R): binds
B3: Spesolimab (Fab, V domains shown)
VH: QVQLVQSGAEVKKPGASVKVSCKASGYSFTSSWIHWVKQAPGQGLEWMGEINPGNVRTNYNENFRNKVTMTVDTSISTAYMELSRLRSDDTAVYYCTVVFYGEPYFPYWGQGTLVTVSS
VL: QIVLTQSPGTLSLSPGERATMTCTASSSVSSSYFHWYQQKPGQAPRLWIYRTSRLASGVPDRFSGSGSGTDFTLTISRLEPEDAATYYCHQFHRSPLTFGAGTKLEIK
